In US20250066499A1 (SUNSHINE GUOJIAN PHARMACEUTICAL SHANGHAI, published 2025):

Assays:
Test in all cases: ELISA; decline multiple of Top against CD73-ND
[1] = target: T1, CD73-ND-P134A (human, UniProt P21589 27-317)
T1 construct: Alanine mutant of CD73-ND
T1 sequence: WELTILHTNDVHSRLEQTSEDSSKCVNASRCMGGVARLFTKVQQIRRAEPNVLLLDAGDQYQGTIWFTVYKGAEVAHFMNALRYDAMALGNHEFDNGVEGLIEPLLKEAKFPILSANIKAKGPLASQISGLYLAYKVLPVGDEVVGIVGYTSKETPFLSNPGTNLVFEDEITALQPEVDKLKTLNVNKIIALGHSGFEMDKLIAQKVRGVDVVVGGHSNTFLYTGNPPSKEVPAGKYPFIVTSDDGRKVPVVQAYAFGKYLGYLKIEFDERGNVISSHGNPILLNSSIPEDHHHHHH
Procedure: (§1) The ELISA plates were coated with SA protein diluted to 1.5 μg/mL in coating buffer (50 mM carbonate coating buffer, pH 9.6) and incubated overnight at 4° C. The supernatant was discarded, and the plates were washed three times with PBST. Then, 5% skimmed milk powder prepared with PBS was added for blocking and the plates were incubated for 2 h at 37° C. After washing the plates once with PBST, CD73-biotin protein (prepared by biotinylating CD73-His protein according to the EZ-Link NHS-Biotin Reagent instructions) was diluted to 0.5 μg/mL and added at 100 μL/well for incubation at room temperature for 1 h. The plates were washed three times with PBST, and the prepared murine-derived monoclonal antibodies against human CD73 were serially diluted with 1% BSA buffer prepared with PBST and added to the ELISA plates at 100 μl/well. The plates were incubated at 37° C. for 1 h. After washing the plates three times with PBST, HRP-labeled goat anti-mouse IgG secondary antibody was added and the plates were incubated for 30 min at 37° C. After washing the plates three times with PBST, the residual droplets were patted dry on absorbent paper as much as possible. Then, 100 μl of TMB color developing solution was added to each well, and the plates were incubated in the dark at room temperature for 5 min for color development. Subsequently, 50 μl of 2M H₂SO₄ stop solution was added to each well to terminate the substrate reaction. The OD values were read at 450 nm using a multimode microplate reader to analyze the binding ability of the tested antibodies to the target antigen human CD73-His.
(§2) Referring to the experimental method in Example 3, the affinity of 48A11-HuV33 for various mutant proteins of CD73-ND was determined. The SA protein was diluted to 1 μg/mL for coating the ELISA plates, and the biotinylated CD73 protein (CD73-biotin) was used at a concentration of 0.1 μg/mL.

[2] = target: T2, CD73-ND-K136A (human, UniProt P21589 27-317)
T2 construct: Alanine mutant of CD73-ND
T2 sequence: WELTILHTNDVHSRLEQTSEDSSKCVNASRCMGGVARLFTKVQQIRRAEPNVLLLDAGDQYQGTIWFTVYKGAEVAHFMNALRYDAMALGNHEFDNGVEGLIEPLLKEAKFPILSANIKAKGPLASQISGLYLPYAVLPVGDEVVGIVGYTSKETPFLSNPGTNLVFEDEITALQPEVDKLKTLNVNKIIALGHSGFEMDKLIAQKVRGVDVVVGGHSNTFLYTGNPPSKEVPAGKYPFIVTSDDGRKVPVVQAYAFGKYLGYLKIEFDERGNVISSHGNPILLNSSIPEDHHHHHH
Procedure: as §1, §2

[3] = target: T3, CD73-ND-L133A (human, UniProt P21589 27-317)
T3 construct: Alanine mutant of CD73-ND
T3 sequence: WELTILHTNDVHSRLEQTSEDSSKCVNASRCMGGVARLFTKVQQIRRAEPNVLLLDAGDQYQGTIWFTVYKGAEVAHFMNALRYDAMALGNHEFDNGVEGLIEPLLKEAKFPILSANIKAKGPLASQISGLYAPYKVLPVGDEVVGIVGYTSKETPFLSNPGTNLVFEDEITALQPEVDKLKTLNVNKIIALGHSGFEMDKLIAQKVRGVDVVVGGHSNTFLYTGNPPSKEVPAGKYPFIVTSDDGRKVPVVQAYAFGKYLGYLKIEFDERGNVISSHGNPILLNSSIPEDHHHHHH
Procedure: as §1, §2

[4] = target: T4, CD73-ND-Y132A (human, UniProt P21589 27-317)
T4 construct: Alanine mutant of CD73-ND
T4 sequence: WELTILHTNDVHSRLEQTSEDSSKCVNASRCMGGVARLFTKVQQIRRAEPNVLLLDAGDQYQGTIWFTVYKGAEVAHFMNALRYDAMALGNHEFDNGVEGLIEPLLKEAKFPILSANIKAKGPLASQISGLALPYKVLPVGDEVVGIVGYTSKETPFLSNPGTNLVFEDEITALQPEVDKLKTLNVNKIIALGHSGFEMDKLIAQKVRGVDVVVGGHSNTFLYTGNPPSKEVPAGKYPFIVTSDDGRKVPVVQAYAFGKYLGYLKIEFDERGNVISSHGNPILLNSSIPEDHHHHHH
Procedure: as §1, §2

[5] = target: T5, CD73-ND-L138A (human, UniProt P21589 27-317)
T5 construct: Alanine mutant of CD73-ND
T5 sequence: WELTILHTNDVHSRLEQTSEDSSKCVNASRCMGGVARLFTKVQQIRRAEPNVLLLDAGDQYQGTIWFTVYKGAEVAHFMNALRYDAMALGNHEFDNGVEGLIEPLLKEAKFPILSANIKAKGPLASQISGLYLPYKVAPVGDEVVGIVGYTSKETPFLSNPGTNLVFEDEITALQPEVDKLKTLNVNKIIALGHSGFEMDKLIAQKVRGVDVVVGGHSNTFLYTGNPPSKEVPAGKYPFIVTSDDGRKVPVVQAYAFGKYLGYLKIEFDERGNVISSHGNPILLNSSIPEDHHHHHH
Procedure: as §1, §2

[6] = target: T6, CD73-ND-his (human, UniProt P21589 27-317)
T6 construct: Biotinylated and captured on streptavidin in the ELISA
T6 sequence: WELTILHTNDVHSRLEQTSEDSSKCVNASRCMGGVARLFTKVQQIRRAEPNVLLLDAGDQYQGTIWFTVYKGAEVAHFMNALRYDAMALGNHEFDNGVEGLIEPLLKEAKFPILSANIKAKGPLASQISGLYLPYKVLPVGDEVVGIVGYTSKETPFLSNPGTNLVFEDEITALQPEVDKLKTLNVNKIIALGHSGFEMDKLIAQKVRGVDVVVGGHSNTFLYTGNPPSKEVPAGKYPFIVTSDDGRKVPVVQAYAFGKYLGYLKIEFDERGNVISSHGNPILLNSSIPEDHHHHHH
Procedure: as §1, §2

B1: 48A11-HuV33 (antibody, human IgG4, V domains shown)
VH: QVQLVQSGAEVKKPGASVKVSCKASGYTFTSYWMHWVRQAPGQGLEWIGEINPSIGRTNYNEKFKSRVTLTRDTSTSTAYMELSSLRSEDTAVYYCARRVYGTMDYWGQGTLVTVSS
VL: DIQMTQSPSSLSASVGDRVTITCKASQDINSYLSWFQQKPGKSPKLLIYRANIWVDGVPSRFSGSGSGQDYTFTISSLQPEDIATYYCLQYDELYTFGQGTKVEIK
notes: Humanized
[1]
  Ratio(Top): 1.1 fold
[2]
  Ratio(Top): 1 fold
[3]
  Ratio(Top): 2.3 fold
[4]
  Ratio(Top): 8.2 fold
[5]
  Ratio(Top): 1.1 fold
[6]
  Ratio(Top): 1 fold
